Laboratory results: paper PMC3777949, “Dimerization Mediates Thermo-Adaptation, Substrate Affinity and Transglycosylation in a Highly Thermostable Maltogenic Amylase of Geobacillus thermoleovorans” (PLoS ONE, 2013)

Tests used:
[1] = target: maltogenic amylase of Geobacillus thermoleovorans (Gt-Mamy), recombinant wild type (Geobacillus thermoleovorans); assay: SEC; Sephacryl S-200 high resolution column, 100 mM sodium phosphate pH 7 with 50 mM NaCl, 0.3 ml/min; masses from a plot of molecular weight vs Ve/Vo against standards
[2] = target: Gt-Mamy D109A mutant (Geobacillus thermoleovorans)

Question: How did the stoichiometry N [1] turn out when “maltogenic amylase of Geobacillus thermoleovorans (Gt-Mamy), recombinant wild type (enzyme)” was run?
Answer: 2

Question: Gt-Mamy D109A mutant (enzyme) was tested. Which Ea required for thermal denaturation [2] did it give?
Answer: 33.8 kcal/mol

Question: What about the T1/2 of thermal inactivation at 80, 90 and 100°C [2] of the same substance?
Answer: 44.6 h
